From the nanobody polyreactivity screen of Harvey et al. (2022)

Experiment: yeast display, Sf9 membrane polyspecificity reagent, FACS + sequencing; frameworks hold sequencing errors
Procedure, shortened: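 A synthetic nanobody library was expressed on Saccharomyces cerevisiae BJ5465 by galactose induction for 36–48 hours. The library was stained for 1 hour at 4 °C with 10% biotinylated, detergent-solubilized Sf9 membrane reagent and enriched with streptavidin microbeads before FACS. Low and high (top ~1%) gates were set on anti-HA fluorescence for expression and streptavidin fluorescence for reagent binding, and each polyreactivity label reflects the gate of origin.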

Row | Sequence | polyreactivity (PSR sort gate)
1 | HVQLVESGGGLVQAGGSLRLSCAASGGTFYTYVMGWYRPAPGKERELVAAISGSGGSTYYADSVKGRFTISRDNAKNTVYLQMNSLKPEDTAVYYCAAVLYYGDIPYYYWGQGTQVTVSS | high polyreactivity
2 | HVQLVESGGGLVQAGGSLRLSCAASGIIFPIYAMGWYRQAARKERELVASISQSGASTYYADSVKGRFTISRDNAKNTVYLQMNSLNPEDTGVYYCAALNGVGPWQLSYEEFDYWGQGTQVTVSS | low polyreactivity
3 | HVQLVESGGGLVQAGGSLRLSCAASGIIFYQYAMGWYRQAPGKERELVATISSNGGATYADSVKGRFTISRDNAKNTVYLQMNSLKPEDTAVYYCNAGGRYHAPSGDYWGQGTQVTVSS | low polyreactivity
4 | HVQLVESGGGLVQAGGSLRLSCAASGIIFYYYTMGWYRPGPRKERELLAWSGGNTYYADSVKGRFTISRDNAKNTVYLQMNSLKPEDTAVYYCNALAIWSDDWDHWISYADDYWGQGTQVTVSS | low polyreactivity
5 | HVQLVESGGGLVQAGGSLRLSCAASGRISGANMGWDRQAPGKERELGAAISNGGSTNYADSVKGRFTISRANAKNTVYLQMNSLKPEDTAVYYCAKLGPRSYSSYRYDYWGQGTQVTVSS | high polyreactivity
6 | HVQLVESGGGLVQAGGSLRLSCAASGRSFRYNAMGWYRQAPGKERELVAAITRSGGSTDYADSVKGRFTISRDNAKNTVNLQMNSLKPEDTAVYYCAKLQNGQWSTSRVPGDYQYNYWGQGTQVTVSS | high polyreactivity
7 | HVQLVESGGGLVQAGGSLRLSCAASGRTFPRYAMGWYRQAPGTERELVAAISVRAGITYYADSVKGRFTISRDNAKNTVYLQMNSLKPEDTAVYYCAKDLWTTSYDEGDYWGQGTQVTVSS | low polyreactivity
8 | HVQLVESGGGLVQAGGSLRLSCAASGRTFVVNAMGWYRQAPGTEREFVAAISYRGDSTYYAVSVKGRFTFSRDNSKNTVYLQMNSLKPEDTAVYYCAARVLGPGRRYYYWGQGTQVTVSS | high polyreactivity
9 | HVQLVESGGGLVQAGGSLRLSCAASGSIFAQYAMGWYRQAPRKDRELLAAISRSTGRTYYADSVKGRFTISRDNAKNTVYLQMNSLKPEDNAVYYWNVVANRALSRSGYDYWGQGTQVTVSS | high polyreactivity
10 | HVQLVESGGGLVQAGGSLRLSCAASGSIFKRYAMGWYTQAPGKERELVAAITSGGSTNYADSVKGRFTISRDNAKNTVYLQMNSLKPEDTAVYYCAAEHDYYPSNLDYWGQGTQVTVSS | low polyreactivity
11 | HVQLVESGGGLVQAGGSLRLSCAASGSIFSGNAMGWSRQAPGKERELVAAIDWSGDSTYYADSVKGRFTLSRDNAKNTVYLQMNSLKPEDTAVYYCNTVSFSWGYSAYDYWGQGTQVTVSS | low polyreactivity
12 | HVQLVESGGGLVQAGGSLRLSCAASGSISAVNTMGWYRQAPGKERELVATISYSTASTYYADSVKGRFTISRDNAKNTVYLQMNSLKPEDTAVYYCAADAYFDTWYDYWGQGTQVTVSS | low polyreactivity
13 | HVQLVESGGGLVQAGGSLRLSCAASGSTFFWYAMGWYRQATGKERELVAAISKTGGSTYYADSVKGRFTISRDNAQNTVYLQMNSLKPEDTAVYYCNAVRYASKAARSFDYWGQGTQVTVSS | low polyreactivity
14 | HVQLVESGGGLVQAGGSLRLSCAASGSTFNINAMGWYRQAPGKETEFVAAINYRGGSTYYADSVKGRFTISRDNSKNTVYLQMNSLKPEDTAVYYCAAASWKVRKKFDYWGQGTQVTVSS | low polyreactivity
15 | HVQLVESGGGLVQAGGSLRLSCAASGYIFYVYAMGWYRQAPGKERELVAAINSGDITSYADSVKGRFTISRDNAKNTVYFQMNSLKPEDTAVYYCATVLILIYDYWGQGTQVTVSS | low polyreactivity
16 | HVQLVESGGGLVQAGGSLRLSFAASASIYQFYPMGWYRPAPGKERELVAGINNSGGSTYYADSVKGRFTISRDNAKNTVYLQMNSLKPEDTAVYYCMARSRYDTGRQRGYDYWGQGTQVTVSS | low polyreactivity

Row | Sequence | polyreactivity (PSR sort gate)
17 | HVQLVESGGGLVQAGGSLRLSSAASGITFYHNAMGWYRQAPGKEMELVAVSSRGGSTYYADSVKGRFTISRDNAKNTVYLQMNSLKPEDTAVYYCNARFWSYRGQVWYYYWGQGTQVTVSS | high polyreactivity
18 | HVQLVESGGGLVQAGRSLRLSCAASGGIFYRYAMGWYRQAPGKEWELVATISRRGGRTYYADSVKGRFTISRDYAKNTVYLQMYSLKPEDTAVDYCAADEWQSGHGLEDDYWGQGTQVTVSS | high polyreactivity
19 | HVQLVETGGGFVQAGVCLRLSCAASGSIFRVYVMGWYRPATVKERELVAAISHSSGGTYYADSVKWRFTISRDNAKNTVYLQMYSLKPEDTAVYYCAARSRTRRGVHLQPSSRYGSWGQGTQVTVSS | high polyreactivity
20 | HVQLVQSGGGLVQAGGSSRLSCAASGSIFFFNTMGWYSQAPGKERELVAVITSGGSTYYADSVTGRFRISRDNAKNTVYVQMNSLKPEDPAVYYCAARYLPYRRIKYDYWGQGTQVTVSS | low polyreactivity
21 | HVQRVESGGGLVQAGASLRLSCAASGGIFSYNAMGWYRQAPGKERELVAAISGTGGSTYYADSVKGRFTISRDNAMNTVYLQMNSLKPEDTAVYYCAADVEYKVFPGDYWGQGPQVTVSS | low polyreactivity
22 | KDQIVQSGAGLVQAGGSLRISCAPSGFIFTYNAMGWYIQAPGKEREIVATITWSGGSTYYADSVKGRFTISRDNAKNTVYLQMYSLNPEDTAVYYCAVDYSRHGYWSPVYVFNYWGQGTKVTVSS | low polyreactivity
23 | KSGGGLVQAGGSLRLSCAASGRIFLEYAMAWYKQAPGKERELFASISWSGDSTYYADSVKGRFTISRDNAKNTVYLQKNSLKPEDTAVYYCNADGQVGNAVSYDYWGQGTQVTVSS | low polyreactivity
24 | KVQLLESGGGLFQAGGSVRLSCAASGSIIFTYAMGWSRQSPGTEREWVAVITWCGGSTYYADSVKGRFTISRDYAKNTVYLQMNSLKPEDTAVYYCAKDSYYYRRDVTVDYWVQGTQVTVSS | low polyreactivity
25 | KVQLLQTGRGLVQAGGSLRISCAASGRLFWYSDLVWYRQAPGKESELVAAISQRGGSTYYADSVKGSFTISRDNAKNTVYLQMISLKPEDTAGYYCNADFWWAYYPWEYDYWGQGTLVTVSS | high polyreactivity
26 | KVQLVESGGALVQAGGSLRLSCAPSGSIFWNNAMGWYRQAPGKERELVAGISSAGSTNYADSVKGRFTISRDNAKNTVYLQLKSQKPEDTAVYYCAASYFSEYVWLRSYVRYYYWVQGTQVTVSS | low polyreactivity
27 | KVQLVESGGGLFQAVGSLRLSCADSGRTLGGYAMGWYRQAPGKDRELVAAITSDTGTNYADSVKGRFTISRDNAKNTVYLQMNSLKPEDTAVYYCAAERFYEYDYWGQGTQVTVSS | low polyreactivity
28 | KVQLVESGGGLVQAGASLRLSCAASGSIFATYAMGWYREEPGKERELVAAITSSDGSTNYADSVKGRFTISRDYAKNTVYLQMNSLKPEDTAVYYCATVSPDRTDSDSGFDAGYDYWGQGTQVTLSS | low polyreactivity
29 | KVQLVESGGGLVQAGGSLRLSCAASGFTFYGNAMGWYRQAPGKERELVATIRYRGGRTYYADSVKGRFTISRDNAKNTVYLQMNSLKPEDTAVYYCAARSVFLMWGQGTQVTVSS | high polyreactivity
30 | KVQLVESGGGLVQAGGSLRLSCAASGITSSYSAMVWYRQAPGKERELVAAITSSGGSTYYADSVKGRFTISRDNAKNTVYLQMNSLKPEVTAVYYCAARIGQYKAHTRINQYYIRYYWGQGTQVSVSS | low polyreactivity
31 | KVQLVESGGGLVQAGGSLRLSCAASGLIFYDNMGWYRQAPGKERELVAAISSSGGSTSYADSVKGRFTISRDNAKITVYLQMNSLKPEDTAVYYFAADSYPAYLGFVGFDYWGQGTQVTVSS | low polyreactivity
